Positions count from the first letter of the chain named.
Legend:
Mouse IFNβ = Mouse IFNβ (mouse, UniProt P01575 22-182); assay: plate ELISA, mouse IFNβ coated at 1 µg/mL
Cynomolgus monkey IFNβ = molecular target: T1, Cynomolgus monkey IFNβ (cynomolgus monkey, UniProt O77812 22-187); assay: plate ELISA, cynomolgus IFNβ coated at 5 µg/mL, antibody titrated from 30 nM
T1 construct: also called cyno-IFNβ

CID1285 = molecular target: T2, CID1285 (human (IFNβ with IFNα sequence inserted), UniProt P01574 22-187); assay: cell-based or functional assay
T2 chain: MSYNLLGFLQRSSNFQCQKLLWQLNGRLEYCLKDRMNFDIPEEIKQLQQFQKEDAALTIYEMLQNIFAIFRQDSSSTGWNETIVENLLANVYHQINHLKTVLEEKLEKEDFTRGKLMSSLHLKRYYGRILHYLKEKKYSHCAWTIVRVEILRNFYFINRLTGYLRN

CID1276 = molecular target: T3, CID1276 (human (IFNβ with IFNα sequence inserted), UniProt P01574 22-187); assay: cell-based or functional assay
T3 chain: T2 chain with F15R, Q16R, Q18L, K19M, W22A, E135A, K137E

CID1281 = molecular target: T4, CID1281 (human (IFNβ with IFNα sequence inserted), UniProt P01574 22-187); assay: cell-based or functional assay
T4 chain: T2 chain with N90E, H93Q, H97D, K99E, T100A, E135A, K137E

[1] = molecular target: T5, Human IFNβ (mature human interferon beta) (human, UniProt P01574 22-187); assay: plate ELISA, human IFNβ coated at 5 µg/mL, antibody titrated from 30 nM
T5 construct: Recombinant human IFNβ (Peprotech for SPR); In some functional assays it is endogenous IFNβ secreted by primary human cells; also called hIFN-β; recombinant human IFNβ
T5 sequence (P01574 22-187): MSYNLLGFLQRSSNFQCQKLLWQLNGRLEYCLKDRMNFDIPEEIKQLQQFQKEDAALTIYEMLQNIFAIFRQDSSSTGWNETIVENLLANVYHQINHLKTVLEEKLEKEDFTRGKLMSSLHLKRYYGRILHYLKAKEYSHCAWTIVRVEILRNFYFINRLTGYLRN

Mouse IFNβ, sequence (P01575 22-182): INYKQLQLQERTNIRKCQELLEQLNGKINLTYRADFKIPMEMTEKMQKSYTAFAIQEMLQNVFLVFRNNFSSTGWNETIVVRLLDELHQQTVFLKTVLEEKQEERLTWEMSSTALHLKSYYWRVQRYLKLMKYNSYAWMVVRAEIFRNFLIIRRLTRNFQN
T1 sequence (O77812 22-187): as the sequence (P01574 22-187) above, with N14S, L47P, F67Y, S74L, N96D, V101I, L116F, M117V, Y155F, R159K counted along it

B1: CTI-AF1 (antibody, human IgG1, kappa, V domains shown)
VH: QVQLVQSGAEVKKPGSSVKVSCKASGYTFSRYWMHWVRQAPGQGLEWMGHIDPSDSYTYYNQKFKGRVTITADESTSTAYMELSSLRSEDTAVYYCARWDYGNLLFEYWGQGTLVTVSS
VL: DIQMTQSPSSLSASVGDRVTITCRTSQDIGNYLNWYQQKPGKAFKLLIYSTSRLHSGVPSRFSGSGSGTDFTLTISSLQPEDFATYYCQQGIILPITFGGGTKVEIKR
notes: Humanized IgG1; The C-terminal K of the heavy chain is printed as optional, '(K)'; also called anti-IFNβ antibody; humanized IgG1 antibody against interferon beta
With B1 the binding result (Mouse IFNβ) was “no binding”, the EC50 (Cynomolgus monkey IFNβ) was 0.0247 nM and the “IC50 (nM), neutralization of type I IFN-induced STAT1 phosphorylation” value (“IC50 (nM), neutralization” for short) (CID1285) was 0.4 nM. The “IC50 (nM), neutralization” value (CID1276) was 0.2 nM, the “IC50 (nM), neutralization” value (CID1281) was 3280 nM and the EC50 [1] was 0.0151 nM.
